Laboratory results: PMC8710476 (Frontiers in Immunology, 2021)

Molecular target: Recombinant SARS-CoV-2 RBD (residues R319–F541) (SARS-CoV-2, UniProt P0DTC2)
Test: SPR
Settings: both partners purified

B1: REGN10987 (class III) (antibody, V domains shown)
VH: QVQLVESGGGVVQPGRSLRLSCAASGFTFSNYAMYWVRQAPGKGLEWVAVISYDGSNKYYADSVKGRFTISRDNSKNTLYLQMNSLRTEDTAVYYCASGSDYGDYLLVYWGQGTLVTVSS
VL: QSALTQPASVSGSPGQSITISCTGTSSDVGGYNYVSWYQQHPGKAPKLMIYDVSKRPSGVSNRFSGSKSGNTASLTISGLQSEDEADYYCNSLTSISTWVFGGGTKLTVL
For B1, the Kd was under 10 pM.
